Source: patent publication EP4585618A1 (Jiangsu Hengrui Pharmaceuticals Co., Ltd., dated 2025)

Assays:
[1] = target: T1, full-length human ILT4 protein overexpressed on cells (human, UniProt Q8N423 22-597); assay: flow cytometry competition on CHO-S/ILT4 cells; competitor CF647-labelled HLA-G tetramer; Assay 2
T1 construct: also called CHO-S/ILT4; ILT4 stably transfected cell strain

[2] = target: T1, full-length human ILT4 protein …; assay: flow cytometry competition on CHO-S/ILT4 cells; competitor CF647-labelled HLA-G tetramer; Assay 3
[3] = target: T2, His-tagged ILT4 protein extracellular domain: ILT4-His (human, UniProt Q8N423 22-460); assay: ELISA, coated ILT4-His 1 µg/mL; Assay 3
T2 construct: Expressed in 293 cells; also called human ILT4-His protein

[4] = target: T2, His-tagged ILT4 protein extracellular …; assay: ELISA, coated ILT4-His 1 µg/mL; Assay 5
[5] = target: T1, full-length human ILT4 protein …; assay: flow cytometry competition on CHO-S/ILT4 cells; competitor CF647-labelled HLA-G tetramer; Assay 4
[6] = target: T2, His-tagged ILT4 protein extracellular …; assay: ELISA, coated ILT4-His 1 µg/mL; Assay 1
[7] = target: T1, full-length human ILT4 protein …; assay: flow cytometry competition on CHO-S/ILT4 cells; competitor CF647-labelled HLA-G tetramer; Assay 1
[8] = target: T2, His-tagged ILT4 protein extracellular …; assay: ELISA, coated ILT4-His 1 µg/mL; Assay 2
[9] = target: T2, His-tagged ILT4 protein extracellular …; assay: ELISA, coated ILT4-His 1 µg/mL; Assay 4
[10] = target: T2, His-tagged ILT4 protein extracellular …; assay: SPR (Biacore), antibody captured on Protein A chip, ILT4-His as analyte, 1:1 model
[11] = target: T3, His-tagged ILT2 protein extracellular domain: ILT2-His (human, UniProt Q8NHL6 24-461); assay: ELISA, coated protein 1 µg/mL
T3 construct: The entry is the whole construct, with the His tag; also called human ILT2 protein

[12] = target: T4, LILRA6-His (Acro, LI6-H82E2) (human, UniProt Q6PI73 24-447); assay: ELISA, coated protein 1 µg/mL
T4 construct: Bought protein. 'Human' stands at the head of the list of coated proteins; not shown: His tag

[13] = target: T5, LILRA1-His (Acro, LI1-H82E8) (human, UniProt O75019 17-461); assay: ELISA, coated protein 1 µg/mL
T5 construct: Bought protein. 'Human' stands at the head of the list of coated proteins; not shown: His tag

[14] = target: T6, LILRA5-His (Acro, LI5-H82E1) (human, UniProt A6NI73 42-268); assay: ELISA, coated protein 1 µg/mL
T6 construct: Bought protein. 'Human' stands at the head of the list of coated proteins; not shown: His tag

[15] = target: T7, LILRA3-His (Acro, LI3-H82E0) (human, UniProt Q8N6C8 24-439); assay: ELISA, coated protein 1 µg/mL
T7 construct: Bought protein. 'Human' stands at the head of the list of coated proteins; not shown: His tag

[16] = target: T8, LILRA2-His (Acro, LI2-H82E9) (human, UniProt Q8N149 24-449); assay: ELISA, coated protein 1 µg/mL
T8 construct: Bought protein. 'Human' stands at the head of the list of coated proteins; not shown: His tag

[17] = target: T9, His-tagged ILT3 protein extracellular domain: ILT3-His (human, UniProt Q8NHJ6 22-259); assay: ELISA, coated protein 1 µg/mL
T9 construct: The entry is the whole construct, with the His tag

[18] = target: T10, LILRB5-His (Acro, CDC-H5220) (human, UniProt O75023 24-458, limits assumed); assay: ELISA, coated protein 1 µg/mL
T10 construct: Bought protein. 'Human' stands at the head of the list of coated proteins; not shown: His tag

[19] = target: T11, LILRA4-His (SinoBiological, 16058-H08H) (human, UniProt P59901 24-446); assay: ELISA, coated protein 1 µg/mL
T11 construct: Bought protein. 'Human' stands at the head of the list of coated proteins; not shown: His tag

[20] = target: T3, His-tagged ILT2 protein extracellular …; assay: ELISA, coated protein 1 µg/mL, antibody 10 µg/mL
[21] = target: T4, LILRA6-His (Acro, LI6-H82E2); assay: ELISA, coated protein 1 µg/mL, antibody 10 µg/mL
[22] = target: T5, LILRA1-His (Acro, LI1-H82E8); assay: ELISA, coated protein 1 µg/mL, antibody 10 µg/mL
[23] = target: T6, LILRA5-His (Acro, LI5-H82E1); assay: ELISA, coated protein 1 µg/mL, antibody 10 µg/mL
[24] = target: T7, LILRA3-His (Acro, LI3-H82E0); assay: ELISA, coated protein 1 µg/mL, antibody 10 µg/mL
[25] = target: T8, LILRA2-His (Acro, LI2-H82E9); assay: ELISA, coated protein 1 µg/mL, antibody 10 µg/mL
[26] = target: T9, His-tagged ILT3 protein extracellular …; assay: ELISA, coated protein 1 µg/mL, antibody 10 µg/mL
[27] = target: T10, LILRB5-His (Acro, CDC-H5220); assay: ELISA, coated protein 1 µg/mL, antibody 10 µg/mL
[28] = target: T2, His-tagged ILT4 protein extracellular …; assay: ELISA, coated protein 1 µg/mL, antibody 10 µg/mL
[29] = target: T11, LILRA4-His (SinoBiological, 16058-H08H); assay: ELISA, coated protein 1 µg/mL, antibody 10 µg/mL
[30] = target: T1, full-length human ILT4 protein …; assay: flow cytometry (FACS) on CHO-S/ILT4 cells; Assay 1

T5 sequence (O75019 17-461 limits assumed): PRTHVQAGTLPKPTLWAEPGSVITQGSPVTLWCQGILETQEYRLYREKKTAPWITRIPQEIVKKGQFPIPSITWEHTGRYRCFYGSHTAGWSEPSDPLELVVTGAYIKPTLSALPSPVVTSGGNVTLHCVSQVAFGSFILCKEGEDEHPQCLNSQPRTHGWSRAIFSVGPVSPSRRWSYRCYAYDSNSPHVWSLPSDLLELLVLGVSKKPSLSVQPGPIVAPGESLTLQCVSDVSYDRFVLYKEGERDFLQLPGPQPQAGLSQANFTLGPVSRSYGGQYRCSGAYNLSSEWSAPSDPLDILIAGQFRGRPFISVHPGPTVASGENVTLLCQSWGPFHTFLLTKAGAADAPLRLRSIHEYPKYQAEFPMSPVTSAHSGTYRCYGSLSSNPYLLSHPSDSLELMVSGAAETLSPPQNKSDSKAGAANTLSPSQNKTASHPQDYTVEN
T1 sequence (Q8N423 other isoform, or with tags, fused parts or gaps limits assumed): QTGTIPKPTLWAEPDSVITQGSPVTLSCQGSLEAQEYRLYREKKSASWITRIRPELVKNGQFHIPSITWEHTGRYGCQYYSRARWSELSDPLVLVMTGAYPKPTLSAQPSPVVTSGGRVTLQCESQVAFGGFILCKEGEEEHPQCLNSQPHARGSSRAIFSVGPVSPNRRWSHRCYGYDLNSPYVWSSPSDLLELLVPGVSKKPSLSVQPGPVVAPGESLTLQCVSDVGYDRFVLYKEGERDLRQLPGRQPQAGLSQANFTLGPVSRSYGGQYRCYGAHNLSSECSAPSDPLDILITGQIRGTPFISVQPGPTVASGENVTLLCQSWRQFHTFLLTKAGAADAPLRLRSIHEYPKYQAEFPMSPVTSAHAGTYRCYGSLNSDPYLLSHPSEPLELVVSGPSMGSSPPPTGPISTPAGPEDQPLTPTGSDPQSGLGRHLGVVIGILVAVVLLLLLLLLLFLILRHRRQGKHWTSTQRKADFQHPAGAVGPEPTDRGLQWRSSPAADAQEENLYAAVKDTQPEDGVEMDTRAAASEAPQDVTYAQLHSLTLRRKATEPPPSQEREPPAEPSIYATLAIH
T4 sequence (Q6PI73 24-447 limits assumed): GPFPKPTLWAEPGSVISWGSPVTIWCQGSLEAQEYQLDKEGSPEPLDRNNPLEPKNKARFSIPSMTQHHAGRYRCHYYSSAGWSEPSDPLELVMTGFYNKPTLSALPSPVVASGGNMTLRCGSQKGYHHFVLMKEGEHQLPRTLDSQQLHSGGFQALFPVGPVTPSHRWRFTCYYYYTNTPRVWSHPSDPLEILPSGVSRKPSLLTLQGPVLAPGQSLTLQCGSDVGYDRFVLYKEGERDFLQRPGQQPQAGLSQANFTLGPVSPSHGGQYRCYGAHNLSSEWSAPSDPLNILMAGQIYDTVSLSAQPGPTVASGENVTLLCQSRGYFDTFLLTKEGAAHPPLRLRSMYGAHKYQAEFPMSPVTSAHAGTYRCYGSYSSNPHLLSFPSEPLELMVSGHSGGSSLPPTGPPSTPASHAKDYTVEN
T8 sequence (Q8N149 24-449 limits assumed): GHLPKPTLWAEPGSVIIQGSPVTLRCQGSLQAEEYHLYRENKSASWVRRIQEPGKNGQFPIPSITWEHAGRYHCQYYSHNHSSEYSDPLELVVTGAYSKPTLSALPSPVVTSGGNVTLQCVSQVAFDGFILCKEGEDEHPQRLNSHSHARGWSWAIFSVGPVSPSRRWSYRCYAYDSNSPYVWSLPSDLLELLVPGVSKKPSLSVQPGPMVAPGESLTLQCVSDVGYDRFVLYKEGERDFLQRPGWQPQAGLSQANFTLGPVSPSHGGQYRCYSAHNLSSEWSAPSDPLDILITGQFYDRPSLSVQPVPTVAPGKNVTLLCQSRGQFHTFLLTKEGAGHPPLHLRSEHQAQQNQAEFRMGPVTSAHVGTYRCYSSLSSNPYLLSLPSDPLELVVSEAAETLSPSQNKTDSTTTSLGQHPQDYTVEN
T2 sequence (Q8N423 other isoform, or with tags, fused parts or gaps limits assumed): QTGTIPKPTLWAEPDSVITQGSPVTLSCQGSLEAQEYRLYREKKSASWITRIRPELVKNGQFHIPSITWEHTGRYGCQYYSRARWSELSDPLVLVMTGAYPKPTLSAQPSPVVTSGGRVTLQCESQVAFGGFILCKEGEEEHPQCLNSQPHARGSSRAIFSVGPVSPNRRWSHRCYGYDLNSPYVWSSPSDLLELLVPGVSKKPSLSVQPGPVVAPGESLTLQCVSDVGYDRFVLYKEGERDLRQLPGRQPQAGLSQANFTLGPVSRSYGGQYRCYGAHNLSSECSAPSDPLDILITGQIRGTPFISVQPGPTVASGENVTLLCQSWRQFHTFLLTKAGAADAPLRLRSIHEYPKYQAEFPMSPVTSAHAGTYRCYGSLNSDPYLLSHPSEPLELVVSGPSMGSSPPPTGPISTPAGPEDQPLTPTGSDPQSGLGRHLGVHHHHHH
T11 sequence (P59901 24-446 limits assumed): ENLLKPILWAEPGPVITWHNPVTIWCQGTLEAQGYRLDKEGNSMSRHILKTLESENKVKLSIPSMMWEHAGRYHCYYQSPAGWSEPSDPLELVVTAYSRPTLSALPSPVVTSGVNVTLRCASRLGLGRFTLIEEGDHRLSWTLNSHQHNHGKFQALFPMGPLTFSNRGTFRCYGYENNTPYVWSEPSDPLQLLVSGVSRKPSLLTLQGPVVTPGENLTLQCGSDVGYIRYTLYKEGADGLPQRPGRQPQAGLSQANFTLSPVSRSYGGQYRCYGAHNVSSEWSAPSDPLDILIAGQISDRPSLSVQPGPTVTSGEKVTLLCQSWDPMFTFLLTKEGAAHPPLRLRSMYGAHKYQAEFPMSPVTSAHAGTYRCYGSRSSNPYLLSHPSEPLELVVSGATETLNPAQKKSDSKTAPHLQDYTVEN
T7 sequence (Q8N6C8 24-439 limits assumed): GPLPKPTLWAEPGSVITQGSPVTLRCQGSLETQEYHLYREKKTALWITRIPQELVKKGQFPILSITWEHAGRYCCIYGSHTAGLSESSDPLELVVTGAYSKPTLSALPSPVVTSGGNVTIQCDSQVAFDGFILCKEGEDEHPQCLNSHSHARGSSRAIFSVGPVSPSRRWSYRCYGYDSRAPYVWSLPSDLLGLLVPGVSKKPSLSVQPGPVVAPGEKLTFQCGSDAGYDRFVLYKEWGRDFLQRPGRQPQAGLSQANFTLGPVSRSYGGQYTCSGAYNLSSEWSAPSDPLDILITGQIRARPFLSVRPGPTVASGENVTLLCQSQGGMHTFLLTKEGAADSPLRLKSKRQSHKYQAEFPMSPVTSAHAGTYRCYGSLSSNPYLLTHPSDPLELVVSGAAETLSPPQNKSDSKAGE
T3 sequence (Q8NHL6 other isoform, or with tags, fused parts or gaps): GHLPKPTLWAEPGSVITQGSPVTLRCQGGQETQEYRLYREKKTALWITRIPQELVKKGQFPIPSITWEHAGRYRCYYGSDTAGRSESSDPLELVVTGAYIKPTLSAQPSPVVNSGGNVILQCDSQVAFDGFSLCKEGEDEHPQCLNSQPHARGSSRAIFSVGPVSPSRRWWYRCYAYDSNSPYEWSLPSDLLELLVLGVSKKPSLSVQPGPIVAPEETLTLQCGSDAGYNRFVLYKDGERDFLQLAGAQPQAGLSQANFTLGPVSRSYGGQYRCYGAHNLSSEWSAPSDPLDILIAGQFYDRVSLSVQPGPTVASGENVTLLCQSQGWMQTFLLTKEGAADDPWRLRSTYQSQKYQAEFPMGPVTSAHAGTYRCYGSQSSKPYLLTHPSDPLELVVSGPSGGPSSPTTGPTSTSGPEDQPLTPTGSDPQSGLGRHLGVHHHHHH
T6 sequence (A6NI73 42-268 limits assumed): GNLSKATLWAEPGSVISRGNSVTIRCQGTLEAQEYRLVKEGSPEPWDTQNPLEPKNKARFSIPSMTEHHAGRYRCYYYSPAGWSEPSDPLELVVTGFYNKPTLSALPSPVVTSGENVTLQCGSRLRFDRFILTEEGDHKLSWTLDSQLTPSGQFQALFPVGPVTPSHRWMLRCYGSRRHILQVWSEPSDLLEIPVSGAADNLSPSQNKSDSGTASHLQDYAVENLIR
T10 sequence (O75023 24-458 limits assumed): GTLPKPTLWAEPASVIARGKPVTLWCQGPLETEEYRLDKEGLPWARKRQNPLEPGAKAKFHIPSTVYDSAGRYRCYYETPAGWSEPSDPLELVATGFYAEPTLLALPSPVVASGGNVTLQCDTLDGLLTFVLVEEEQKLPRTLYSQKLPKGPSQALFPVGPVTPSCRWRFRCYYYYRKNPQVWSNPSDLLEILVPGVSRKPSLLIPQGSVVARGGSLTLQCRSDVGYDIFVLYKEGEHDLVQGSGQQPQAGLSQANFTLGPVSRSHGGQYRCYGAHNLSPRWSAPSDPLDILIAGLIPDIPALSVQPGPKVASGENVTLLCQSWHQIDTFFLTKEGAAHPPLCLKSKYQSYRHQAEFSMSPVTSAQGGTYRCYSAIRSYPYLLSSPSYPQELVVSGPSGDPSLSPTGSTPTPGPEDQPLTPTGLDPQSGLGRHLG

B1: positive control antibody JTX (sequences from WO2019126514A2) (antibody, human IgG4 S228P, kappa, V domains shown)
VH: QITLKESGPTLVKPTQTLTLTCTFSGFSLNTYAMGVSWIRQPPGKALEWLASIWWNGNKYNNPSLKSRLTVTKDTSKNQVVLTMTNMDPVDTATYYCAHSRIIRFTDYVMDAWGQGTLVTVSS
VL: DIQMTQSPSSLSTSVGDRVTITCRASEDIYNDLAWYQQKPGKAPKLLIYNANSLHTGVASRFSGSGSGTDFTFTISSLQPEDVATYFCQQYYDYPLTFGQGTKLEIKR
notes: also called JTX-8064
IC50 [1]: 0.12 µg/mL
IC50 [2]: 0.12 µg/mL
EC50 [3]: 0.0293 µg/mL
EC50 [4]: 0.0801 µg/mL
Top [4]: 1.14 absorbance at 450 nm
IC50 [5]: 0.061 µg/mL
EC50 [6]: 0.0826 µg/mL
IC50 [7]: 0.022 µg/mL
EC50 [8]: 0.0826 µg/mL
Top [8]: 1.7 absorbance at 450 nm
EC50 [9]: 0.083 µg/mL

B2: fully human-derived antibody P2m (antibody, human IgG1, kappa, L234A L235A, V domains shown)
VH: QVQLVQSGAEVKKPGSSVKVSCKASGYTFTSYDISWVRQAPGQGLEWMGGIIPIFGTANYAQKFQGRVTITADESTSTAYMELSSLRSEDTAVYYCTAGIFLATAYWGQGTLVTVSS
VL: DIQMTQSPSSMSASVGDRVTISCQASQDIQNYLNWYQQRPGQAPKLLIYDASTLETGVPSRFSGSGSGTYFTLTISSLQPEDVATYYCQQYENVPITFGQGTRLEIKR
notes: Full chains
IC50 [5]: 0.033 µg/mL
Kd [10]: 0.0433 nM
koff [10]: 8.78e-05 s⁻¹
kon [10]: 2.03e+06 M⁻¹ s⁻¹
binding result [11]: no binding (tested: 10 µg/mL)
binding result [12]: no binding (tested: 10 µg/mL)
binding result [13]: no binding (tested: 10 µg/mL)
binding result [14]: no binding (tested: 10 µg/mL)
binding result [15]: no binding (tested: 10 µg/mL)
binding result [16]: no binding (tested: 10 µg/mL)
binding result [17]: no binding (tested: 10 µg/mL)
binding result [18]: no binding (tested: 10 µg/mL)
binding result [19]: no binding (tested: 10 µg/mL)
absorbance at 450 nm [20]: 0.0517 absorbance at 450 nm
absorbance at 450 nm [21]: 0.0453 absorbance at 450 nm
absorbance at 450 nm [22]: 0.0469 absorbance at 450 nm
absorbance at 450 nm [23]: 0.0459 absorbance at 450 nm
absorbance at 450 nm [24]: 0.0468 absorbance at 450 nm
absorbance at 450 nm [25]: 0.0448 absorbance at 450 nm
absorbance at 450 nm [26]: 0.0671 absorbance at 450 nm
absorbance at 450 nm [27]: 0.0663 absorbance at 450 nm
absorbance at 450 nm [28]: 1.87 absorbance at 450 nm
absorbance at 450 nm [29]: 0.0543 absorbance at 450 nm

B3: chimeric antibody ChP1-C4 (antibody, human IgG4 S228P, kappa, F234A L235A, V domains shown)
VH: QVQLKQSGAELVRPGASVKLSCKASGYSFTDYYINWVKQRPGQGLEWIARIYPGNDNTYYNEKFKDKATLTADSSSSTAYMQLSSLTSEDSAVYFCTRSQDGYYEENAMDYWGQGTSVTVSS
VL: DIQMTQSPASLSVSVGETVTITCRASENIYSNLAWYQQRQGKSPQLLVYAATNLADGVPFRFSGSGSGTQYSLKINSLQSEDFGSYYCQQFWGSPHTFGGGTKLEIKR
notes: Murine variable regions with hIgG4(LALA) and CL constant regions; also called M P1-C4
EC50 [6]: 0.0643 µg/mL

B4: humanized antibody huP2-E3 (antibody, human IgG4 S228P, kappa, F234A L235A, V domains shown)
VH: EVQLVQSGAEVKKPGASVKVSCKASGYTFTDYYMNWVKQAPGQRLEWMGDINPNSGGTSYNQKFKGRVTITVDKSGSTAYMELSSLRSEDTAVYYCARGGVTTVVATYWYFDVWGQGTTVTVSS
VL: DIQMTQSPSSLSASVGDRVTITCRASENIYSNLAWYQQKPGKSPKLLVYAATNVADGVPSRFSGSGSGTDYTLTISSLQPEDFATYYCQQFWDTPFTFGQGTKLEIKR
notes: Full chains; The constant region is hIgG1(LALA) or hIgG4(LALA) with a kappa CL; also called P2-E3H6L2
EC50 [30]: 0.0307 µg/mL
Kd [10]: 1.26 nM
koff [10]: 0.00127 s⁻¹
kon [10]: 1.01e+06 M⁻¹ s⁻¹
IC50 [7]: 0.012 µg/mL
binding result [11]: no binding (tested: 10 µg/mL)
binding result [12]: no binding (tested: 10 µg/mL)
binding result [13]: no binding (tested: 10 µg/mL)
binding result [14]: no binding (tested: 10 µg/mL)
binding result [15]: no binding (tested: 10 µg/mL)
binding result [16]: no binding (tested: 10 µg/mL)
binding result [17]: no binding (tested: 10 µg/mL)
binding result [18]: no binding (tested: 10 µg/mL)
binding result [19]: no binding (tested: 10 µg/mL)
absorbance at 450 nm [20]: 0.0541 absorbance at 450 nm
absorbance at 450 nm [21]: 0.047 absorbance at 450 nm
absorbance at 450 nm [22]: 0.0532 absorbance at 450 nm
absorbance at 450 nm [23]: 0.0466 absorbance at 450 nm
absorbance at 450 nm [24]: 0.0476 absorbance at 450 nm
absorbance at 450 nm [25]: 0.055 absorbance at 450 nm
absorbance at 450 nm [26]: 0.0699 absorbance at 450 nm
absorbance at 450 nm [27]: 0.0523 absorbance at 450 nm
absorbance at 450 nm [28]: 1.04 absorbance at 450 nm
absorbance at 450 nm [29]: 0.0605 absorbance at 450 nm

B5: chimeric antibody ChP1-D7 (antibody, human IgG4 S228P, kappa, F234A L235A, V domains shown)
VH: QIQLVQSGPDLKKPGETVKISCKASGYTFTTYGMNWVKQAPGKALKWMGWINTYSGVPTYADDFKGRFAFSLETSATTAYLQINNLKNEDTATYFCARRTDYDGYVMDCWGQGTSVTVSS
VL: DIVMSQSPSSLAVSIGEKVTMSCKSSQSLFYSGNQKNYLAWYLQKPGQSPKLLLYWASTRESGVPDRFTGSGSGTDFTLTISSVMAEDLAVYYCQQYFSYPPTFGGGTKLEIKR
notes: Murine variable regions with hIgG4(LALA) and CL constant regions; also called M P1-D7
EC50 [3]: 0.0292 µg/mL

B6: positive control antibody MK (sequences from WO2018187518A1) (antibody, human IgG4 S228P, lambda, V domains shown)
VH: EVQLQQWGAGLLKPSETLSLTCAVYGGSFSGYYWSWIRQPPGKGLEWIGEINHAGSTNYNPSLKSRVTISVDTSKNQFSLKLSSVTAADTAVYYCARLPTRWVTTRYFDLWGRGTLVTVSS
VL: ESVLTQPPSVSGAPGQRVTISCTGSSSNIGAGYDVHWYQQLPGTAPKLLIYGDSNRPSGVPDRFSVSKSGASASLAITGLQAEDEADYYCQSFDNSLSAYVFGGGTQLTVLG
IC50 [1]: 0.138 µg/mL
IC50 [2]: 0.138 µg/mL
EC50 [30]: 0.031 µg/mL
IC50 [5]: 0.092 µg/mL
Kd [10]: 19.1 nM
koff [10]: 0.00863 s⁻¹
kon [10]: 452000 M⁻¹ s⁻¹
IC50 [7]: 0.031 µg/mL

B7: chimeric antibody ChP1-E11 (antibody, human IgG4 S228P, kappa, F234A L235A, V domains shown)
VH: EVQLQQSGPELVKPGASVKMSCQASGYTFTDYSIHWVKQSRGASLEWIGYINPNNGVTNYNQKFKGKATLTVNKSSSTAYMELRSLTSEDSAVYYCAREGDSVTTIVVHWYFDVGGTGTTVTVSS
VL: DIQMTQSPASLSVSLGETVTITCRASENIYSNLVWYQQKQGKFPQLLVYAAINLVDGVPSRFSGSGSGTQYSLKINSLQSEDFGSYYCQQFWDTPLTFGAGTKLEIKR
notes: Murine variable regions with hIgG4(LALA) and CL constant regions; also called M P1-E11
EC50 [9]: 0.041 µg/mL
